{"source": "patent US20160264674A1", "about": "(ADURO BIOTECH HOLDINGS EUROPE B V, published 2016)", "binders": {"B1": {"name": "VH11.VL15 (antibody, human IgG4 S228P, kappa, V domains shown)", "VH": "QVQLVQSGAEVKKPGASVKVSCKASGYTFTSYVMHWVRQAPGQRLEWMGYINPYNDAPKYNEKFKGRVTITRDTSASTAYMELSSLRSEDTAVYYCARGLGYALYYAMDYWGQGTTVTVSS", "VL": "DIVMTQSPSTLSASVGDRVTITCKASQNVGNNVAWYQQKPGKAPKLLISSASNRDSGVPSRFSGSGSGTEFTLTISSLQPDDFATYFCQQYNIYPFTFGQGTKLEIKR", "notes": "Humanized IgG4 (S241P, Kabat) with human kappa, from HEK293T; also called 11.15"}}, "key": {"FLAG-tagged human APRIL [1]": {"target": "T1, FLAG-tagged human APRIL (human, UniProt O75888 105-250, limits assumed)", "T1 construct": "also called FLAG-tagged APRIL; FLAG-APRIL; not shown: FLAG tag", "T1 sequence (looked up)": "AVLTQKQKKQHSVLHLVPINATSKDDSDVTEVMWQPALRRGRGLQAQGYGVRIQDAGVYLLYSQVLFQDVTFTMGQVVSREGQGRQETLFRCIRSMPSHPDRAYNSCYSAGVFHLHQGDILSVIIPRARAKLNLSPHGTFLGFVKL", "experiment": "FLAG-APRIL ELISA after 10 min at 65 °C, antibody at 1 µg/ml", "procedure": "(§1) The plasmids encoding the VH and VL constructs were mixed in a 1:3 ratio (4 μg in total) and transiently expressed by transfection into HEK293T human embryonic kidney cells (HEK293T/17, ATCC-CRL-11268), using Lipofectamine 2000 transfection reagent (Invitrogen) following the manufacturer's instructions. Cell supernatants were harvested after 5 days and tested for expression of antibody and binding to APRIL using an enzyme-linked immuno assay (ELISA). In these ELISAs, all incubation steps were followed by a wash step with PBST (PBS with 0.01% Tween 20). Maxisorb 96-wells plates (Nunc) were coated with 0.5 μg/ml anti-FLAG (Sigma) or anti-IgG4 (Jackson laboratories) and incubated overnight at 4° C. Subsequently the anti-FLAG coated 96-wells plates were incubated with FLAG-tagged human APRIL for 1 hour at room temperature. Next, supernatants and dilutions thereof were incubated for 1 hour, which was followed by an incubation of 1 hour with mouse anti-human IgG HRP-conjugate (Southern Biotechnology).\n(§2) To determine the effect of humanization on the stability of the antibodies, humanized antibodies were exposed to a range of temperatures for 10 minutes. Purified antibodies were diluted to 3.16 μg/ml and dilutions thereof in PBS. Next, these solutions were exposed to 65° C. or 70° C. and residual binding after heat treatment of the antibodies was measured using the FLAG-tagged APRIL ELISA assay as described before (see Table 6)."}, "FLAG-tagged human APRIL [2]": {"target": "T1, FLAG-tagged human APRIL", "experiment": "FLAG-APRIL ELISA after 10 min at 70 °C, antibody at 0.316 µg/ml", "procedure": "as §1, §2"}, "FLAG-tagged human APRIL [3]": {"target": "T1, FLAG-tagged human APRIL", "experiment": "FLAG-APRIL ELISA after 10 min at 65 °C, antibody at 0.316 µg/ml", "procedure": "as §1, §2"}, "FLAG-tagged human APRIL [4]": {"target": "T1, FLAG-tagged human APRIL", "experiment": "FLAG-APRIL ELISA after 10 min at 65 °C, antibody at 3.16 µg/ml", "procedure": "as §1, §2"}, "FLAG-tagged human APRIL [5]": {"target": "T1, FLAG-tagged human APRIL", "experiment": "FLAG-APRIL ELISA after 10 min at 70 °C, antibody at 1 µg/ml", "procedure": "as §1, §2"}, "FLAG-tagged human APRIL [6]": {"target": "T1, FLAG-tagged human APRIL", "experiment": "competition ELISA: antibody premixed with FLAG-tagged APRIL, added to coated Fc-BCMA, anti-FLAG HRP", "procedure": "A subset of humanized antibodies described above was selected for further analyses. Again, plasmids encoding the VH and VL constructs were mixed in a 1:3 ratio (32 μg) and transiently expressed by transfection into (8*10⁶) HEK293T human embryonic kidney cells (HEK293T), using Lipofectamine 2000 transfection reagent (Invitrogen) according to the manufacturer's instructions. Supernatants were harvested (10 ml) and antibodies were purified using MabSelect Sure Protein A resin according to the manufacturer's instructions (GE Healthcare). Buffer was exchanged for PBS using Zeba desalting columns (Thermo Scientific). The concentration of purified antibodies was determined based on OD280 (Nanodrop ND-1000). The binding of the purified antibodies to APRIL was established using the above described APRIL ELISA. The blocking capability of the humanized antibodies with BCMA and TACI receptors, was tested in a competition ELISA. In these ELISAs, all incubation steps were followed by a wash step with PBST (PBS with 0.01% Tween 20). […] Reactions were stopped with 100 μl 0.5 M H2504 and absorbances were measured at 450 and 620 nm. Calculated EC₅₀ and IC₅₀ representing the concentration at which 50% of the total binding signal or blocking is observed are represented in Table 5."}, "FLAG-tagged human APRIL [7]": {"target": "T1, FLAG-tagged human APRIL", "experiment": "FLAG-APRIL ELISA after 10 min at 70 °C, antibody at 3.16 µg/ml", "procedure": "as §1, §2"}, "FLAG-tagged human APRIL [8]": {"target": "T1, FLAG-tagged human APRIL", "experiment": "ELISA: FLAG-tagged human APRIL captured on anti-FLAG plate, purified antibody titrated", "procedure": "as §1\nA subset of humanized antibodies described above was selected for further analyses. Again, plasmids encoding the VH and VL constructs were mixed in a 1:3 ratio (32 μg) and transiently expressed by transfection into (8*10⁶) HEK293T human embryonic kidney cells (HEK293T), using Lipofectamine 2000 transfection reagent (Invitrogen) according to the manufacturer's instructions. Supernatants were harvested (10 ml) and antibodies were purified using MabSelect Sure Protein A resin according to the manufacturer's instructions (GE Healthcare). Buffer was exchanged for PBS using Zeba desalting columns (Thermo Scientific). The concentration of purified antibodies was determined based on OD280 (Nanodrop ND-1000). The binding of the purified antibodies to APRIL was established using the above described APRIL ELISA. The blocking capability of the humanized antibodies with BCMA and TACI receptors, was tested in a competition ELISA. In these ELISAs, all incubation steps were followed by a wash step with PBST (PBS with 0.01% Tween 20). Maxisorb 96-wells plates (Nunc) were coated with 0.5 μg/ml Fc-BCMA (R&D Systems) or Fc-TACI (R&D Systems) and incubated overnight at 4° C. Next, humanized antibodies and dilutions thereof were incubated, premixed with FLAG-tagged APRIL, for 1 hour, which was followed by an incubation of 1 hour with anti-FLAG HRP-conjugate (Sigma)."}}, "data": [{"binder": "B1", "values": [{"measurement": "% residual binding after heat treatment (room temperature = 100%)", "setting": "FLAG-tagged human APRIL [1]", "result": 55.1, "unit": "%"}, {"measurement": "% residual binding after heat treatment (room temperature = 100%)", "setting": "FLAG-tagged human APRIL [2]", "result": 82, "unit": "%"}, {"measurement": "% residual binding after heat treatment (room temperature = 100%)", "setting": "FLAG-tagged human APRIL [3]", "result": 74.6, "unit": "%"}, {"measurement": "% residual binding after heat treatment (room temperature = 100%)", "setting": "FLAG-tagged human APRIL [4]", "result": 63.1, "unit": "%"}, {"measurement": "% residual binding after heat treatment (room temperature = 100%)", "setting": "FLAG-tagged human APRIL [5]", "result": 62.4, "unit": "%"}, {"measurement": "IC50", "setting": "FLAG-tagged human APRIL [6]", "result": 4.3, "unit": "nM"}, {"measurement": "% residual binding after heat treatment (room temperature = 100%)", "setting": "FLAG-tagged human APRIL [7]", "result": 59.1, "unit": "%"}, {"measurement": "EC50", "setting": "FLAG-tagged human APRIL [8]", "result": 121, "unit": "nM"}]}]}
